Values quoted from earlier work in publication PMC11195831.

Biological target: PD-1 (Homo sapiens) (UniProt Q15116)
Test: SPR

Chain of PD-1 (Homo sapiens) (Q15116 25-170): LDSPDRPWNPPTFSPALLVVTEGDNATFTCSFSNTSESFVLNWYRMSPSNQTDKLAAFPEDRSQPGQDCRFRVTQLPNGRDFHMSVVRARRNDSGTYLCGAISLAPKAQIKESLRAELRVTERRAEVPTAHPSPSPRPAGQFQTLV

Kd [nM]	Substance
0.6	Retifanlimab
0.3	Dostarlimab
